Substrate in the series: O=C(O)C(=O)Cc1ccc(O)cc1
The experiment in a line: purified protein. The following applies: Fe(II).

B1: OsHPPD (4-hydroxyphenylpyruvate dioxygenase) (Oryza sativa Japonica Group) (protein)
chain: PPTPTPTATTGAVSAAAAAGENAGFRLVGHRRFVRANPRSDRFQALAFHHVELWCADAASAAGRFAFALGAPLAARSDLSTGNSAHASLLLRSASVAFLFTAPYGGDHGVGADAATTASIPSFSPGAARRFAADHGLAVHAVALRVADAADAFRASVAAGARPAFQPADLGGGFGLAEVELYGDVVLRFVSHPDGADAPFLPGFEGVSNPGAVDYGLRRFDHVVGNVPELAPVAAYISGFTGFHEFAEFTAEDVGTAESGLNSVVLANNAETVLLPLNEPVHGTKRRSQIQTYLDHHGGPGVQHIALASDDVLGTLREMRARSAMGGFEFLAPPPPNYYDGVRRRAGDVLSEEQINECQELGVLVDRDDQGVLLQIFTKPVGDRPTFFLEMIQRIGCMEKDESGQEYQKGGCGGFGKGNFSELFKSIEEYEKSLEAKQAPTVQGS
As for B1, the Km was found to be 40.02 µM.

B2: AtHPPD (4-hydroxyphenylpyruvate dioxygenase) (Arabidopsis thaliana) (protein)
chain: MGHQNAAVSENQNHDDGAASSPGFKLVGFSKFVRKNPKSDKFKVKRFHHIEFWCGDATNVARRFSWGLGMRFSAKSDLSTGNMVHASYLLTSGDLRFLFTAPYSPSLSAGEIKPTTTASIPSFDHGSCRSFFSSHGLGVRAVAIEVEDAESAFSISVANGAIPSSPPIVLNEAVTIAEVKLYGDVVLRYVSYKAEDTEKSEFLPGFERVEDASSFPLDYGIRRLDHAVGNVPELGPALTYVAGFTGFHQFAEFTADDVGTAESGLNSAVLASNDEMVLLPINEPVHGTKRKSQIQTYLEHNEGAGLQHLALMSEDIFRTLREMRKRSSIGGFDFMPSPPPTYYQNLKKRVGDVLSDDQIKECEELGILVDRDDQGTLLQIFTKPLGDRPTIFIEIIQRVGCMMKDEEGKAYQSGGCGGFGKGNFSELFKSIEEYEKTLEAKQLVG
On to B2, for which the Km turned out to be 44.04 µM.

The record behind these values is publication PMC12203613.
